Laboratory results reported in publication PMC12461627, “Locking CBL TKBD in its native conformation presents a novel therapeutic opportunity in mutant CBL-dependent leukemia” (Molecular Therapy, 2025).

B1: unnamed (parent)
chain 1: MTVEEMDSWIKSWDQM
chain 2: PPGTVDKKMVEKCWKLMDKVVRLCQNPKLALKNSPPYILDLLPDTYQHLRTILSRYEGKMETLGENEYFRVFMENLMKKTKQTISLFKEGKERMYEENSQPRRNLTKLSLIFSHMLAELKGIFPSGLFQGDTFRITKADAAEFWRKAFGEKTIVPWKSFRQALHEVHPISSGLEAMALKSTIDLTCNDYISVFEFDIFTRLFQPWSSLLRNWNSLAVTHPGYMAFLTYDEVKARLQKFIHKPGSYIFRLSCTRLGQWAIGYVTADGNILQTIPHNKPLFQALIDGFREGFYLFPDGRNQNPDLTGLCEP

Variants of: B1
Assay: phage ELISA
Conditions: with partner chain of the complex shown;; read off a plot

| Variant | response |
| --- | --- |
| chain 2 PPGTVDKKMVEKCWKLMDKVVRLCQNPKLALKNSPPYILDLLPDTYQHLRTILSRYEGKMETLGENEYFRVFMENLMKKTKQTISLFKEGKERMYEENSQPRRNLTKLSLIFSHMLAELKGIFPSGLFQGDTFRITKADAAEFWRKAFGEKTIVPWKSFRQALHEVHPISSGLEAMALKSTIDLTCNDYISVFEFDIFTRLFQPWSSLLRNWNSLAVTHPGYMAFLTYDEVKARLQKFIHKPGSYIFRLSCTRLGQWAIEYVTADGNILQTIPHNKPLFQALIDGFREGFYLFPDGRNQNPDLTGLCEP [chain 2 G260E] | 0.1 OD at 450 nm |
